Assay results published in the RNAGym collection of RNA variant scans (doi:10.1073/pnas.2313332121).

B1: TPR t1 (parent)
chain: GACCAAUCUGCCCUCAGAGCUCGAGAACAUCUUCGGAUGCAGAGGAGGCAGGCUUCGGUGGCGCGAUAGCGCCAACGUCCUCAACCUCCAAUGCAUCCCACCACAUGAUGAUGCCUGAAGAGCCUUGGUUUUUUG

Variants of: B1
Experiment: polymerase ribozyme fitness, log enrichment relative to wild type (log ratio); higher = more active; in vitro selection for triplet polymerase activity
How it was run: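 PCR was used to build mutant libraries for each subunit of a heterodimeric triplet polymerase ribozyme, which were then transcribed. A single in vitro selection round, in triplicate, used a frozen incubation at −7 °C and recovered extended constructs by gel excision, streptavidin beads and RT-PCR. Fitness is the logarithm of genotype enrichment relative to wild-type enrichment, averaged over replicates with inverse-variance weights. The logarithm is base 2, and after Illumina sequencing only genotypes with ≥10 input reads and ≥1 read per output were kept.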

Variant	polymerase ribozyme fitness (log ratio)
U38A C94G	-2.2
A37G G71U C114A A119C	-5.35
U38A C80U C123U	-1.04
A37U A74U A121C	1.55
A37U A43G A50C G52U G110A	-5.79
U38G G58U G63C G113C G135C	-4.03
A37U G39U C104U	-1.36
A37U G113U	-3.11
G39A C62A C72G	-4.2
A37U G39U G69A	-4.43
U38G A95C A100C U106A G127A	-3.43
U38A G42U U59A C88G A95U C114A	-4.56
A37U C86A U112G G128A	-3.56
G39A C56A G71C C124A	-5.6
A37U A43U G93C U116A	-6.51
G39A G45A	-1.29
A37G G77A U130G	-1.16
U38G G127U G135U	-2.73
A37U C82A G93U	-1.72
A37U C49G U55A C104A	-1.38
G39A C89G C101U	-1.85
U38G C76U	-1.36
A37U U131A	-0.895
A37U U59C	-0.107

Variant	polymerase ribozyme fitness (log ratio)
A37U U59A	-0.609
A37U G127A	-2.32
G39A C86A C123A	-1.81
U38G G69U C98A	-4.75
G39A A43U C88G C123A	-4.11
A37G A46U C56A G120A	-1.7
G39A C89G A90C	-2.4
A37U A66U	-1.5
A37U G48C A121C	0.912
U38A G71A U129A	-3.95
G39A C85U	-1.3
G39A A119U	-0.287
U38G A111C	-0.398
A37G C49G U81G	-2.07
U38A C124A	1.2
U38A G48U C49A U87A C115A	-3.9
A37U G47U G60A G110A	-3.74
A37U U54A G61C C102A	-4.66
U38G G71U U92G G93A U112A	-6.86
U38G C53G G69U C98A	-6.04
A37U C123U U126A	0.344
U38A G93U C123U	-3.41
U38C G63A G77C U131G	-2.97
A37U G77U G93C	-2.05

Variant	polymerase ribozyme fitness (log ratio)
A37G A43U G44U C72U U87C C104U U129G	-2.31
G39A A46U C64U	-2.95
U38C A46C C53A C76G C80U C94U	-2.96
A37U G39U	-1.39
U38A A111G	-1.31
U38G G77A U78C U125A	-1.89
U38G C56U A91U U125G U126G G127U	-3.43
A37G G48A C56G G93A G110C	-5.64
A37C U116G	-2.29
U38G A46C C101U	-2.55
U38G G47U C76U C85U U96C U130C	-5.5
A37U G45U G61C	-2.86
A37U C49G	-0.828
A37U C53G C89U C102U U131A	-2.62
A37U A121C U126G G128U	0.977
G39A A43U C72G	-1.83
A37G C53A G57U	0.602
U38A G63C C85U	-2.4
U38A A83C U92C C124A	-1.34
U38G C70U U125G	-2.25
U38G G52A G61A U112G C124U U129G	-1.92
U38G U54C C56U G61U A111U	-5.38
U38A A50U C123G U133A	-0.425
G39A C62U G122A	-1.13

Variant	polymerase ribozyme fitness (log ratio)
U38C A46G	-3.03
A37G C49A C56A G128C	-3.61
U38G C49U G61U	-1.52
U38A A46U	-2.42
A37U C72U C98A C123G	-5.11
U38G U133A	-0.846
A37G U109G	-5.43
A37U C53G G63C U116A	-2.98
G39A C56G	-1.24
A37U C70U C79U	-0.766
A37U G47A G77A	-1.29
G39A A41G A83G C94A	-4.25
A37U A43G C86G	-2.33
A37G U55G C88U A105C G120C U125C	-1.81
U38A A41G G44A C64U C82U	-4.14
G39A C82A	-0.962
A37U C40U U87G	-1.01
A37G U55G C72A U129A	-1.52
A37U C86U	-0.912
A37U G113U G120A	-2.83
U38C	-0.501
U38G	-0.73
U38A	-0.984
U38A G57U G58U	-1.64

Variant	polymerase ribozyme fitness (log ratio)
A37U G39C U54C U59G C89A U112A A121C	-4.68
A37U G69U	-0.0814
A37G U38G G61U C104U C124G	-4.81
A37U U38A G63A	-3.7
G39A C70U	-0.985
G39A A50U G63C	-2.66
A37G C62U	-0.523
A37U G48A	-0.338
A37U U78C	-0.461
A37G G60A G127A	-2
A37U G51A A100C U112A	-5.37
A37U U38C C53U	-1.6
U38A C70U	-1.15
G39A G44U C86A A108U C115U G128U U130G	-6.8
A37U A50C C70A C124G	-1.17
A37U C82A G120C	0.889
U38G A84U	-1.9
U38G C64U A66C A90U A91C U132A	-3.61
A37U C85U	-1.29
A37U A91G A105U	-3.28
G39A C62U A83U U87G	-0.927
U38C G110U G135U	-3.96
G39A	-0.485
A37U G69U A95C C101G G127A	-3.13

Variant	polymerase ribozyme fitness (log ratio)
U38A C102U A111G U112A U126G U129C	-6.23
A37U C64U U132C	-0.703
A37U C64U	-1.67
A37U A90G C97A	-5.5
A37U U130G	-1.28
A37U C114A A121C U125C	-0.52
U38C U112A	1.08
A37U U81G	-3.43
U38G A50G U81C G113A	-1.89
A37U A75U	-0.0341
U38G G60A G110C U125A	-6.15
U38C A43U C86A	-2.82
A37U G42A	-2.01
A37G C53A C73G A105G U109G U112A	-6.74
A37U G69C C72U C85U	-1.89
U38G G42U G120C U126G G128U	-3.39
G39A C40G G69U C101A	-2.28
A37U C49A U55C U112A	0.525
A37G C53A G63U U125A	-3.34
A37U C79A U87G U96A A118U	-0.000648
A37U C56U C72U	-0.343
A37U A66C C76U	-2.83
A37U C73A U87C	0.034
A37U C82G G110C	-6.53

Variant	polymerase ribozyme fitness (log ratio)
U38C G63U G77C U131G	-3.41
A37G C79G	-1.49
G39A A75U G110C	-5.51
U38G C79U C97U	-5.59
G39A C62U A75U A83C U87C	-1.16
U38G U112C	0.772
A37G G48A C56G G71U G117C	-6.21
U38G U96A C101U	-2.15
A37G C88A A91U	-4.17
U38C C40U C56G U78A G113A	-3.17
G39A A41U G69U	-0.975
A37U A41G	-0.165
A37U U126A	-2.55
U38A G58C C70U C115A	-1.72
A37U C56A	-1.32
A37U C56U	-0.686
A37U C73U G120C	1.31
A37U U54C G60U C123U	1.13
U38A G39U C82G U130A	-3.44
U38A G45U G52A U131G	-3.68
U38G A46U G110U	-4.8
U38A G45A U129C	-2.96
U38G A95C	0.185
